Reference: the supplement of paper PMC5998384

Legend:
[1] = test system: HeLa Kyoto; assay: solubility in G1/S (NP-40 vs SDS abundance) (log2 ratio); higher = more soluble; conditions: cell cycle stage: G1/S
[2] = test system: HeLa Kyoto; assay: melting temperature (median over replicates), in situ; higher = more thermally stable
[3] = test system: HeLa Kyoto; assay: solubility change mitosis vs G1/S (difference of NP-40 vs SDS log2 ratios) (log2 ratio difference); higher = more soluble in mitosis
[4] = test system: HeLa Kyoto; assay: thermal stability score vs G1/S (z-score of summed log2 fold changes over temperatures); higher = more thermally stable than in G1/S
[5] = cell cycle stage: early G1 (4.5 h after nocodazole release)
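Throughout, for melting temperature (median over replicates), in situ: HeLa Kyoto cells synchronized by double thymidine or nocodazole block, proteins quantified by TMT10plex mass spectrometry, three independent biological replicates.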
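Throughout, for solubility change mitosis vs G1/S (difference of NP-40 vs SDS log2 ratios): synchronized HeLa Kyoto cells (double thymidine block for G1/S, nocodazole release for mitosis), protein amounts in NP-40 versus SDS lysates quantified by mass spectrometry, three biological replicates.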
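Throughout, for solubility in G1/S (NP-40 vs SDS abundance): HeLa Kyoto cells arrested at G1/S by double thymidine block, proteins quantified by TMT10plex mass spectrometry in mild NP-40 versus SDS extracts, three biological replicates.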
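Throughout, for thermal stability score vs G1/S (z-score of summed log2 fold changes over temperatures): synchronized HeLa Kyoto cells, proteins quantified by TMT10plex mass spectrometry, three biological replicates, mitosis taken 0.5 h after nocodazole release, G1/S directly after double thymidine block.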

Row | Sequence | solubility in G1/S (log2) [1] | melting temperature ([2]; cell cycle stage: G1/S) [°C] | melting temperature ([2]; cell cycle stage: mitosis) [°C] | solubility change mitosis (log2) [3] | thermal stability score [4, 5] | thermal stability score ([4]; cell cycle stage: mitosis)
1 | MAEFLDDQETRLCDNCKKEIPVFNFTIHEIHCQRNIGMCPTCKEPFPKSDMETHMAAEHCQVTCKCNKKLEKRLLKKHEETECPLRLAVCQHCDLELSILKLKEHEDYCGARTELCGNCGRNVLVKDLKTHPEVCGREGEEKRNEVAIPPNAYDESWGQDGIWIASQLLRQIEALDPPMRLPRRPLRAFESDVFHNRTTNQRNITAQVSIQNNLFEEQERQERNRGQQPPKEGGEESANLDFMLALSLQNEGQASSVAEQDFWRAVCEADQSHGGPRSLSDIKGAADEIMLPCEFCEELYPEELLIDHQTSCNPSRALPSLNTGSSSPRGVEEPDVIFQNFLQQAASNQLDSLMGLSNSHPVEESIIIPCEFCGVQLEEEVLFHHQDQCDQRPATATNHVTEGIPRLDSQPQETSPELPRRRVRHQGDLSSGYLDDTKQETANGPTSCLPPSRPINNMTATYNQLSRSTSGPRPGCQPSSPCVPKLSNSDSQDIQGRNRDSQNGAIAPGHVSVIRPPQNLYPENIVPSFSPGPSGRYGASGRSEGGRNSRVTPAAANYRSRTAKAKPSKQQGAGDAEEEEEE [TRAFD1] | 0.132 | 53.8 | 53.9 | -0.0897 | -1.71 | -2.27
2 | MAEGNHRKKPLKVLESLGKDFLTGVLDNLVEQNVLNWKEEEKKKYYDAKTEDKVRVMADSMQEKQRMAGQMLLQTFFNIDQISPNKKAHPNMEAGPPESGESTDALKLCPHEEFLRLCKERAEEIYPIKERNNRTRLALIICNTEFDHLPPRNGADFDITGMKELLEGLDYSVDVEENLTARDMESALRAFATRPEHKSSDSTFLVLMSHGILEGICGTVHDEKKPDVLLYDTIFQIFNNRNCLSLKDKPKVIIVQACRGANRGELWVRDSPASLEVASSQSSENLEEDAVYKTHVEKDFIAFCSSTPHNVSWRDSTMGSIFITQLITCFQKYSWCCHLEEVFRKVQQSFETPRAKAQMPTIERLSMTRYFYLFPGN [CASP4] | 0.0521 |  | 50.5 | -0.0831 | 0.457 | 0.45
3 | MAELDPFGAPAGAPGGPALGNGVAGAGEEDPAAAFLAQQESEIAGIENDEAFAILDGGAPGPQPHGEPPGGPDAVDGVMNGEYYQESNGPTDSYAAISQVDRLQSEPESIRKWREEQMERLEALDANSRKQEAEWKEKAIKELEEWYARQDEQLQKTKANNRVADEAFYKQPFADVIGYVTNINHPCYSLEQAAEEAFVNDIDESSPGTEWERVARLCDFNPKSSKQAKDVSRMRSVLISLKQAPLVH [CLTA] | 0.31 | 54.7 |  | 0.362 | -6.01 | -4.14
4 | MAELSEEALLSVLPTIRVPKAGDRVHKDECAFSFDTPESEGGLYICMNTFLGFGKQYVERHFNKTGQRVYLHLRRTRRPKEEDPATGTGDPPRKKPTRLAIGVEGGFDLSEEKFELDEDVKIVILPDYLEIARDGLGGLPDIVRDRVTSAVEALLSADSASRKQEVQAWDGEVRQVSKHAFSLKQLDNPARIPPCGWKCSKCDMRENLWLNLTDGSILCGRRYFDGSGGNNHAVEHYRETGYPLAVKLGTITPDGADVYSYDEDDMVLDPSLAEHLSHFGIDMLKMQKTDKTMTELEIDMNQRIGEWELIQESGVPLKPLFGPGYTGIRNLGNSCYLNSVVQVLFSIPDFQRKYVDKLEKIFQNAPTDPTQDFSTQVAKLGHGLLSGEYSKPVPESGDGERVPEQKEVQDGIAPRMFKALIGKGHPEFSTNRQQDAQEFFLHLINMVERNCRSSENPNEVFRFLVEEKIKCLATEKVKYTQRVDYIMQLPVPMDAALNKEELLEYEEKKRQAEEEKMALPELVRAQVPFSSCLEAYGAPEQVDDFWSTALQAKSVAVKTTRFASFPDYLVIQIKKFTFGLDWVPKKLDVSIEMPEELDISQLRGTGLQPGEEELPDIAPPLVTPDEPKGSLGFYGNEDEDSFCSPHFSSPTSPMLDESVIIQLVEMGFPMDACRKAVYYTGNSGAEAAMNWVMSHMDDPDFANPLILPGSSGPGSTSAAADPPPEDCVTTIVSMGFSRDQALKALRATNNSLERAVDWIFSHIDDLDAEAAMDISEGRSAADSISESVPVGPKVRDGPGKYQLFAFISHMGTSTMCGHYVCHIKKEGRWVIYNDQKVCASEKPPKDLGYIYFYQRVAS [USP5] | 0.218 | 52 | 51.9 | -0.139 | 0.203 | 0.183
5 | MAELVQGQSAPVGMKAEGFVDALHRVRQIAAKIDSIPHLNNSTPLVDPSVYGYGVQKRPLDDGVGNQLGALVHQRTVITEEFKVPDKMVGFIIGRGGEQISRIQAESGCKIQIASESSGIPERPCVLTGTPESIEQAKRLLGQIVDRCRNGPGFHNDIDSNSTIQEILIPASKVGLVIGRGGETIKQLQERTGVKMVMIQDGPLPTGADKPLRITGDAFKVQQAREMVLEIIREKDQADFRGVRGDFNSRMGGGSIEVSVPRFAVGIVIGRNGEMIKKIQNDAGVRIQFKPDDGISPERAAQVMGPPDRCQHAAHIISELILTAQERDGFGGLAAARGRGRGRGDWSVGAPGGVQEITYTVPADKCGLVIGKGGENIKSINQQSGAHVELQRNPPPNSDPNLRRFTIRGVPQQIEVARQLIDEKVGGTNLGAPGAFGQSPFSQPPAPPHQNTFPPRSSGCFPNMAAKVNGNPHSTPVSGPPAFLTQGWGSTYQAWQQPTQQVPSQQSQPQSSQPNYSKAWEDYYKKQSHAASAAPQASSPPDYTMAWAEYYRQQVAFYGQTLGQAQAHSQEQ [FUBP3] | 0.337 | 48.7 | 49.5 | -0.0288 | 0.0807 | 1.05
